Reference: PMC5497066

Tests used:
[1] = molecular target: single-ring mutant of GroEL, SR1 (E. coli), P0A6F5
[2] = molecular target: single-ring truncation mutant, SRΔ526 (E. coli); test: protease protection (encapsulation); denatured PepQ-24F (100 nM) bound to wild-type or Δ526 GroEL-GroES-ADP bullets (200 nM) or full-length or Δ526 single-ring GroEL (300 nM) with GroES (600 nM); single turnover with ATP (2 mM), quenched after 10 s; unencapsulated PepQ digested with Proteinase K; SDS-PAGE, fluorescein scan

B1: wild type E. coli PepQ, P21165 1-443 (enzyme)
chain: MESLASLYKNHIATLQERTRDALARFKLDALLIHSGELFNVFLDDHPYPFKVNPQFKAWVPVTQVPNCWLLVDGVNKPKLWFYLPVDYWHNVEPLPTSFWTEDVEVIALPKADGIGSLLPAARGNIGYIGPVPERALQLGIEASNINPKGVIDYLHYYRSFKTEYELACMREAQKMAVNGHRAAEEAFRSGMSEFDINIAYLTATGHRDTDVPYSNIVALNEHAAVLHYTKLDHQAPEEMRSFLLDAGAEYNGYAADLTRTWSAKSDNDYAQLVKDVNDEQLALIATMKAGVSYVDYHIQFHQRIAKLLRKHQIITDMSEEAMVENDLTGPFMPHGIGHPLGLQVHDVAGFMQDDSGTHLAAPAKYPYLRCTRILQPGMVLTIEPGIYFIESLLAPWREGQFSKHFNWQKIEALKPFGGIRIEDNVVIHENNVENMTRDLKLA
observed folding rate constant of PepQ by recovery of enzymatic activity, bound to SR1 (300 nM) and refolded with GroES (600 nM) and ATP (2 mM) [1]: 0.62 min⁻¹

B2: PepQ-24F (enzyme)
chain: MESLASLYKNHIATLQERTRDALCRFKLDALLIHSGELFNVFLDDHPYPFKVNPQFKAWVPVTQVPNCWLLVDGVNKPKLWFYLPVDYWHNVEPLPTSFWTEDVEVIALPKADGIGSLLPAARGNIGYIGPVPERALQLGIEASNINPKGVIDYLHYYRSFKTEYELACMREAQKMAVNGHRAAEEAFRSGMSEFDINIAYLTATGHRDTDVPYSNIVALNEHAAVLHYTKLDHQAPEEMRSFLLDAGAEYNGYAADLTRTWSAKSDNDYAQLVKDVNDEQLALIATMKAGVSYVDYHIQFHQRIAKLLRKHQIITDMSEEAMVENDLTGPFMPHGIGHPLGLQVHDVAGFMQDDSGTHLAAPAKYPYLRCTRILQPGMVLTIEPGIYFIESLLAPWREGQFSKHFNWQKIEALKPFGGIRIEDNVVIHENNVENMTRDLKLA
modifications: fluorescein (5-iodoacetamidofluorescein) on the cysteine at position 24
early escape compared to SR1 [2]: < 10%
